Where two headings read alike, the source gives them in different places. Values belong to the binder of their own block, whether it stands above or below them.
Key:
[1] = target: T1, biotinylated PD1-ECD-AviHis (human, UniProt Q15116 25-170, biotinylated); assay: ELISA on coated biotinylated PD1-ECD-AviHis (rel. EC50)
T1 construct: also called huPD1; hu PD1; not shown: Avi-His tag
Method: After washing (3×90 μl/well with PBST-buffer) 25 μl/well goat-anti-human H+L-POD (JIR, JIR109-036-098) was added in 1:5000 dilution and incubated at RT for 1 h on a shaker. After washing (3×90 μl/well with PBST-buffer) 25 μl/well of TMB substrate (Roche, 11835033001) was added and incubated until OD 2-3. Measurement took place at 370/492 nm.

[2] = target: T2, recombinant Human LAG-3 Fc Chimera Protein (R&D Systems, 2319-L3) (human, UniProt P18627 29-450); assay: ELISA on coated Human LAG-3 Fc Chimera (rel. EC50)
T2 construct: Bought protein; also called huLAG3; not shown: Fc part of the chimera
T2 sequence: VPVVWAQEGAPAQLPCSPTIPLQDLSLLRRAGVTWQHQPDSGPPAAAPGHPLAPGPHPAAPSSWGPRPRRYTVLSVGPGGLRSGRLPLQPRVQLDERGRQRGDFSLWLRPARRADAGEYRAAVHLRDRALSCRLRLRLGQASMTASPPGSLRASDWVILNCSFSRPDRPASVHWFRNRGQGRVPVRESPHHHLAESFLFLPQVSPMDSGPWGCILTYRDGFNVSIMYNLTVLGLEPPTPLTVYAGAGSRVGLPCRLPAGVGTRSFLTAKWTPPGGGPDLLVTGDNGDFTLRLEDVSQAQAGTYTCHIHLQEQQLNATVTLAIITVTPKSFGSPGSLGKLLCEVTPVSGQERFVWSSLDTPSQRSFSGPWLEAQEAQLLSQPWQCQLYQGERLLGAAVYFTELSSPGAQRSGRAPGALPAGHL
Method: After washing (3×90 μl/well with PBST-buffer) each well was incubated with 90 μl blocking buffer (PBS+2% BSA+0.05% Tween 20) for 1 h at room temperature. […] After washing (3×90 μl/well with PBST-buffer) 25 μl/well goat anti-Human Ig κ chain antibody-HRP conjugate (Milipore, AP502P) was added in a 1:2000 dilution and incubated at RT for 1 h. After washing (3×90 μl/well with PBST-buffer) 25 μl/well TMB substrate (Roche, 11835033001) was added and incubated for 2-10 min. Measurement took place on a Tecan Safire 2 instrument at 370/492 nm.

[3] = target: T3, LAG3 on cells (recombinant CHO cells expressing Lag3) (human, UniProt P18627 29-525); assay: cell ELISA on recombinant CHO cells expressing Lag3 (rel. EC50)
T3 construct: The cell ELISA paragraphs say only 'Lag3'; also called CHO-LAG3; Lag3 cells
T3 sequence: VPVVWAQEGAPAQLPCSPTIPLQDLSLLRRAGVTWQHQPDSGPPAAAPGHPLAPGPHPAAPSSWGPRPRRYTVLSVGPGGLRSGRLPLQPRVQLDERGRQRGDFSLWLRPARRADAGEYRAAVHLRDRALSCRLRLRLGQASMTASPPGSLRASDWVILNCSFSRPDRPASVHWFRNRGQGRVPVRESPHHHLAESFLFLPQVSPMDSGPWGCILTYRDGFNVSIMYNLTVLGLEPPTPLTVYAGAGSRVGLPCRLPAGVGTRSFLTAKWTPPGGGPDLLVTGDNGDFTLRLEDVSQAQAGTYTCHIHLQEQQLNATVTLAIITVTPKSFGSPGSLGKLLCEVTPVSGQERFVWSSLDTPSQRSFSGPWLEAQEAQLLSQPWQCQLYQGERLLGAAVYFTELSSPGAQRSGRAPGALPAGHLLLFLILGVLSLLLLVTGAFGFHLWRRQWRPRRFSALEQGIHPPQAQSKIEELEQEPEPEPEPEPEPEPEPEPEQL
Method: After washing (1×90 μl in PBST) cells were fixed by addition of 30 μl/well glutaraldehyde to a final concentration of 0.05% (Sigma Cat.No: G5882), 10 min at room temperature. After washing (3×90 μl/well with PBST-buffer) 25 μl/well goat anti-Human Ig κ chain antibody-HRP conjugate (Milipore, AP502P) was added in a 1:1000 dilution and incubated at RT for 1 h. After washing (3×90 μl/well with PBST-buffer) 25 μl/well TMB substrate (Roche, 11835033001) was added and incubated for 6-10 min. Measurement took place on a Tecan Safire 2 instrument at 370/492 nm.

[4] = target: T4, full-length human PD1 on cells (human, UniProt Q15116 25-288); assay: cell ELISA on CHO-K1 cells expressing full-length human PD1 (rel. EC50)
T4 construct: also called CHO-PD1
T4 sequence (Q15116 25-288 limits assumed): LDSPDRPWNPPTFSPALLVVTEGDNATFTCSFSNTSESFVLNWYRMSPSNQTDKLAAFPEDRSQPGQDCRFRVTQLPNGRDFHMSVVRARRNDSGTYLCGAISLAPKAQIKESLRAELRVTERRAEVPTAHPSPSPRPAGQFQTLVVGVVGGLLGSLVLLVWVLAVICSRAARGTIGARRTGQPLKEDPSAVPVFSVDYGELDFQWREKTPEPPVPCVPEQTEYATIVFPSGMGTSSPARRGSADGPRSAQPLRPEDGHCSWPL
Method: (to avoid internalization). After washing carefully (1×90 μl/well PBST) cells were fixed by adding 30 μl/well 0.05% Glutaraldehyde (Sigma, Cat.No: G5882, 25%) diluted in 1×PBS-buffer and incubated for 10 min at RT. After washing (3×90 μl/well PBST) 25 μl/well secondary antibody was added for detection: goat-anti-human H+L-POD (JIR, JIR109-036-088)/Sheep-anti-mouse-POD (GE NA9310) followed by 1 h incubation at RT on shaker. After washing (3×90 μl/well PBST) 25 μl/well TMB substrate solution (Roche 11835033001) was added and incubated until OD 1.0-2.0. Plates were measured at 370/492 nm.

biotinylated-Lag3 = target: T5, biotinylated-Lag3 (UniProt P18627 23-450, limits assumed, biotinylated); assay: ELISA, inhibition of biotinylated-Lag3 binding to MHC-II on A375 cells (competitor MHC-II)
T5 construct: Probably a human LAG3 ECD construct; also called Lag3 (MHCII/ELISA)
T5 sequence (looked up): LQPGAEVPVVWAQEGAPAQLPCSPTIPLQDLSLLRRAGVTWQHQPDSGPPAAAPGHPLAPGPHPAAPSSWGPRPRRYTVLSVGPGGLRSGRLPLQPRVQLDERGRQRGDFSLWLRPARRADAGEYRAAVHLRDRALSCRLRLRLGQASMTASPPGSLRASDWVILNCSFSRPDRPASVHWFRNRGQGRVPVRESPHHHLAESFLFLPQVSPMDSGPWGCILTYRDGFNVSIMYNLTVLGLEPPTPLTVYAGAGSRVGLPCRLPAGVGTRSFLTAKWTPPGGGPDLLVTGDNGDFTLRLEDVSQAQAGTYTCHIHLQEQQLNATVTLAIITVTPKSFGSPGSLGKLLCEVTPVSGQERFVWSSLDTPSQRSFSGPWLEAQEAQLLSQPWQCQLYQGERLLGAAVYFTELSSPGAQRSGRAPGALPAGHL
Method: 25 μl/well of A375 cells (10000 cells/well) were seeded into tissue culture treated 384-well plates (Corning, 3701) and incubated at 37° C. overnight. […] After washing (1×90 μl in PBST) cells were fixed by addition of 30 μl/well glutaraldehyde to a final concentration of 0.05% (Sigma Cat.No: G5882), 10 min at room temperature. After washing (3×90 μl/well with PBST-buffer) 25 μl/well Poly-HRP40-Streptavidin (Fitzgerald, 65R-S104PHRPx) was added in a 1:2000 or 1:8000 dilution and incubated at RT for 1 h. After washing (3×90 μl/well with PBST-buffer) 25 μl/well TMB substrate (Roche, 11835033001) was added and incubated for 2 to 10 min. Measurement took place on a Tecan Safire 2 instrument at 370/492 nm.

[5] = target: T6, PD1 on PD1+LAG3+ human U2OS cells (UniProt Q15116 25-288); assay: cell-based or functional assay
T6 sequence (Q15116 25-288): as the sequence (Q15116 25-288 limits assumed) above

[6] = target: T6, PD1 on PD1+LAG3+ human U2OS cells; assay: cell-based or functional assay; remark: listed apart in the source
[7] = target: T6, PD1 on PD1+LAG3+ human U2OS cells; assay: cellular PD1/LAG3 dimerization assay on PD1+LAG3+ U2OS cells, chemoluminescence; the signal needs PD1 and LAG3 bound at once
Method: For this specific interaction, the cytosolic C-terminal ends of both receptors were individually fused to heterologous subunits of a reporter enzyme.
On the next day cell medium was discarded and replaced by fresh medium. Antibody or ligand dilutions were prepared and titrated amounts of indicated (bispecific) antibodies were added and incubated at 37° C. for 2 hours. Next, a substrate/buffer mix (e.g. PathHunterFlash detection reagent) was added and again incubated for 1h. For measuring chemoluminescence induced upon simultaneous binding and dimerization a Tecan infinite reader was used.

T1 sequence (Q15116 25-170): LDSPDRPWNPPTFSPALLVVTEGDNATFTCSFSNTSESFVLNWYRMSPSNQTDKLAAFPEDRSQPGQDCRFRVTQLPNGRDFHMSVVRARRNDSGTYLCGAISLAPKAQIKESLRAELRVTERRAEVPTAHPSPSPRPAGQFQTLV

B1: PD1/LAG3 8310 (bispecific antibody, human IgG1, kappa, L234A L235A)
heavy 1: not shown
heavy 2: EVQLLESGGGLVQPGGSLRLSCAASGFIFDDYTMNWVRQAPGKGLEWVAVISWDGGGTYYTDSVKGRFTISRDDFKNTLYLQMNSLRAEDTAVYYCAKGLTDTTLYGSDYWGQGTLVTVSSASTKGPSVFPLAPSSKSTSGGTAALGCLVEDYFPEPVTVSWNSGALTSGVHTFPAVLQSSGLYSLSSVVTVPSSSLGTQTYICNVNHKPSNTKVDEKVEPKSCDKTHTCPPCPAPEAAGGPSVFLFPPKPKDTLMISRTPEVTCVVVDVSHEDPEVKFNWYVDGVEVHNAKTKPREEQYNSTYRVVSVLTVLHQDWLNGKEYKCKVSNKALGAPIEKTISKAKGQPREPQVCTLPPSRDELTKNQVSLSCAVKGFYPSDIAVEWESNGQPENNYKTTPPVLDSDGSFFLVSKLTVDKSRWQQGNVFSCSVMHEALHNHYTQKSLSLSPGK
light 1: DIVMTQSPDSLAVSLGERATINCKASESVDTSDNSFIHWYQQKPGQSPKLLIYRSSTLESGVPDRFSGSGSGTDFTLTISSLQAEDVAVYYCQQNYDVPWTFGQGTKVEIKSSASTKGPSVFPLAPSSKSTSGGTAALGCLVKDYFPEPVTVSWNSGALTSGVHTFPAVLQSSGLYSLSSVVTVPSSSLGTQTYICNVNHKPSNTKVDKKVEPKSC
light 2: not shown
notes: 2+1 format: two LAG3 Fabs, one PD1 crossFab fused to the C-terminus of the Fc knob heavy chain
- EC50 [1]: 60 pM
- EC50 [2]: 60 pM
- EC50 [3]: 200 pM
- EC50 [4]: 340 pM
- IC50 (biotinylated-Lag3): 470 pM
- EC50 [pM], dimerization binding assay (chemoluminescence) [5]: 28 pM
- EC50 [pM], dimerization binding assay (chemoluminescence) [6]: 114 pM

B4: PD1/LAG3 8311 (bispecific antibody, human IgG1, kappa, L234A L235A)
heavy 1: not shown
heavy 2: EVQLVESGGGLVQPGGSLRLACAASGFTFSDYAMSWVRQAPGKGLEWVSGIDNSGYYTYYTDSVKGRFTISRDDVKNTLYLQMNSLRAEDTAVYLCTKTHSGLIVNDAFDIWGQGTMVTVSSASTKGPSVFPLAPSSKSTSGGTAALGCLVEDYFPEPVTVSWNSGALTSGVHTFPAVLQSSGLYSLSSVVTVPSSSLGTQTYICNVNHKPSNTKVDEKVEPKSCDKTHTCPPCPAPEAAGGPSVFLFPPKPKDTLMISRTPEVTCVVVDVSHEDPEVKFNWYVDGVEVHNAKTKPREEQYNSTYRVVSVLTVLHQDWLNGKEYKCKVSNKALGAPIEKTISKAKGQPREPQVCTLPPSRDELTKNQVSLSCAVKGFYPSDIAVEWESNGQPENNYKTTPPVLDSDGSFFLVSKLTVDKSRWQQGNVFSCSVMHEALHNHYTQKSLSLSPGK
light 1: B1 light 1
light 2: not shown
notes: as for B1
- EC50 [1]: 50 pM
- EC50 [2]: 60 pM
- EC50 [3]: 170 pM
- EC50 [4]: 320 pM
- IC50 (biotinylated-Lag3): 390 pM
- EC50 [pM], dimerization binding assay (chemoluminescence) [5]: 119 pM
- EC50 [pM], dimerization binding assay (chemoluminescence) [6]: 124 pM

B5: 0918 (bispecific antibody, human IgG1, kappa, L234A L235A)
heavy chain 1 (aLAG3 25F7 heavy chain, hole, with PD1 0376 VH at the C-terminus): QVQLQQWGAGLLKPSETLSLTCAVYGGSFSDYYWNWIRQPPGKGLEWIGEINHNGNTNSNPSLKSRVTLSLDTSKNQFSLKLRSVTAADTAVYYCAFGYSDYEYNWFDPWGQGTLVTVSSASTKGPSVFPLAPSSKSTSGGTAALGCLVKDYFPEPVTVSWNSGALTSGVHTFPAVLQSSGLYSLSSVVTVPSSSLGTQTYICNVNHKPSNTKVDKKVEPKSCDKTHTCPPCPAPEAAGGPSVFLFPPKPKDTLMISRTPEVTCVVVDVSHEDPEVKFNWYVDGVEVHNAKTKPREEQYNSTYRVVSVLTVLHQDWLNGKEYKCKVSNKALGAPIEKTISKAKGQPREPQVCTLPPSRDELTKNQVSLSCAVKGFYPSDIAVEWESNGQPENNYKTTPPVLDSDGSFFLVSKLTVDKSRWQQGNVFSCSVMHEALHNHYTQKSLSLSPGGGGGSGGGGSGGGGSGGGGSEVQLLESGGGLVQPGGSLRLSCAASGFSFSSYTMSWVRQAPGKGLEWVATISGGGRDIYYPDSVKGRFTISRDNSKNTLYLQMNSLRAEDTAVYYCVLLTGRVYFALDSWGQGTLVTVSS
heavy chain 2 (aLAG3 25F7 heavy chain, knob, with PD1 0376 VL at the C-terminus): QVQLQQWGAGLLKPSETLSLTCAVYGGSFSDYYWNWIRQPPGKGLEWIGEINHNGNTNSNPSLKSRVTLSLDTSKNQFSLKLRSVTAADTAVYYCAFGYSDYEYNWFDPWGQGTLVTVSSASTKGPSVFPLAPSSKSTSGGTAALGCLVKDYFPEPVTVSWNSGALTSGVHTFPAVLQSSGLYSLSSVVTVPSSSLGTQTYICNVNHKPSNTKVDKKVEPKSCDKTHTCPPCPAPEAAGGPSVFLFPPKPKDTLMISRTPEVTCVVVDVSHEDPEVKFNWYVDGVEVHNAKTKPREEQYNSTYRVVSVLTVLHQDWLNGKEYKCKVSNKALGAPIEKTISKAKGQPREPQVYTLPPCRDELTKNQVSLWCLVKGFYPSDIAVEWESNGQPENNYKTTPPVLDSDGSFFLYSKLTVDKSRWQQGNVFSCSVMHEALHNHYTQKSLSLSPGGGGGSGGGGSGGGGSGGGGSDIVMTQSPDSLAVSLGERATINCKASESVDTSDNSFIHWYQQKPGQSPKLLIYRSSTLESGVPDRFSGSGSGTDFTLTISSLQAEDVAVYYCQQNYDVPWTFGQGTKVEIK
light chain (aLAG3 25F7): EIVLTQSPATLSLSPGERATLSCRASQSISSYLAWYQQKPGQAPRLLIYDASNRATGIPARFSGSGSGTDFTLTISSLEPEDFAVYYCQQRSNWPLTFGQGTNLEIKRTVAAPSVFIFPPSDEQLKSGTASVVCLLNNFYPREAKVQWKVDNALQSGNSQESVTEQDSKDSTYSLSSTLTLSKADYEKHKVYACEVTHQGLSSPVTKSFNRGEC
notes: also called PD1/LAG3 0918
- EC50 (read off the curve) [7]: ~0.4 µg/mL

Continued, values first:

- EC50 [1]: 50 pM
- EC50 [2]: 50 pM
- EC50 [3]: 170 pM
- EC50 [4]: 540 pM
- IC50 (biotinylated-Lag3): 440 pM
- EC50 [pM], dimerization binding assay (chemoluminescence) [6]: 91 pM
B2: PD1/LAG3 8984 (bispecific antibody, human IgG1, kappa, L234A L235A)
heavy: not shown
light 1: B1 light 1
light 2: not shown
notes: 2+2 format

- EC50 [1]: 50 pM
- EC50 [2]: 40 pM
- EC50 [3]: 200 pM
- EC50 [4]: 460 pM
- IC50 (biotinylated-Lag3): 450 pM
- EC50 [pM], dimerization binding assay (chemoluminescence) [6]: 83 pM
B3: PD1/LAG3 8970 (bispecific antibody, human IgG1, kappa, L234A L235A)
heavy: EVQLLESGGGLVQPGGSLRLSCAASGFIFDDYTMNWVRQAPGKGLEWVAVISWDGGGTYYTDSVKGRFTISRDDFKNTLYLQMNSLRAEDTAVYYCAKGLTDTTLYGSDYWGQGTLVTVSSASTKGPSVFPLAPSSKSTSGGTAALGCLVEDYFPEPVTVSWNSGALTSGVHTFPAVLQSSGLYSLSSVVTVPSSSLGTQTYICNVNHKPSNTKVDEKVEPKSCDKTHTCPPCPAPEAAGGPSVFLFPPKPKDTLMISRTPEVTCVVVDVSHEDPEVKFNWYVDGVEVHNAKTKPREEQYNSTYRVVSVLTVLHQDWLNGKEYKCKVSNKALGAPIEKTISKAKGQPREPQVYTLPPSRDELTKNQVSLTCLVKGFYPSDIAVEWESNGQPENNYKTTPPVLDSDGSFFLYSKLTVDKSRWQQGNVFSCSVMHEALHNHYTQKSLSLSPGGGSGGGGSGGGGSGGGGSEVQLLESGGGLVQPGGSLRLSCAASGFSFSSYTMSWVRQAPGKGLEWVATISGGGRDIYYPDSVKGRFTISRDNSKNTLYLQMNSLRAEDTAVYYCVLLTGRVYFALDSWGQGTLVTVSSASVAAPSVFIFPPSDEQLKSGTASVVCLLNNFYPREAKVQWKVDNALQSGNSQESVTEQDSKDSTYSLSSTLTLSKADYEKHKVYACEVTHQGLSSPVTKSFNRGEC
light 1: B1 light 1
light 2: not shown
notes: 2+2 format

Reference: US20220387586A1 (Hoffmann-La Roche, published 2022)
